Experimental data published in publication PMC9279676, “ERK2 MAP kinase regulates SUFU binding by multisite phosphorylation of GLI1” (Life Science Alliance, 2022).

B1: GLI1_(1-232), wild type, 35S-radiolabeled [modified: [35S]-methionine label; [35S]-methionine label] [human] / GST-SUFU (fusion of GST to full-length human SUFU) [human] (parent)
chain 1: MFNSMTPPPISSYGEPCCLRPLPSQGAPSVGTEGLSGPPFCHQANLMSGPHSYGPARETNSCTEGPLFSSPRSAVKLTKKRALSISPLSDASLDLQTVIRTSPSSLVAFINSRCTSPGGSYGHLSIGTMSPSLGFPAQMNHQKGPSPSFGVQPCGPHDSARGGMIPHPQSRGPFPTCQLKSELDMLVGKCREEPLEGDMSSPNSTGIQDPLLGMLDGREDLEREEKREPESV
chain 2: MAELRPSGAPGPTAPPAPGPTAPPAFASLFPPGLHAIYGECRRLYPDQPNPLQVTAIVKYWLGGPDPLDYVSMYRNVGSPSANIPEHWHYISFGLSDLYGDNRVHEFTGTDGPSGFGFELTFRLKRETGESAPPTWPAELMQGLARYVFQSENTFCSGDHVSWHSPLDNSESRIQHMLLTEDPQMQPVQTPFGVVTFLQIVGVCTEELHSAQQWNGQGILELLRTVPIAGGPWLITDMRRGETIFEIDPHLQERVDKGIETDGSNLSGVSAKCAWDDLSRPPEDDEDSRSICIGTQPRRLSGKDTEQIRETLRRGLEINSKPVLPPINPQRQNGLAHDRAPSRKDSLESDSSTAIIPHELIRTRQLESVHLKFNQESGALIPLCLRGRLLHGRHFTYKSITGDMAITFVSTGVEGAFATEEHPYAAHGPWLQILLTEEFVEKMLEDLEDLTSPEEFKLPKEYSWPEKKLKVSILPDVVFDSPLH

Variants of: B1
Assay: GST-SUFU pull-down binding assay with 35S-radiolabeled in vitro-translated GLI1
Conditions: 10 nM GST-SUFU, parent: 55, read off a plot

Row | Variant | response
1 | chain 1 S130E | 33 % GLI1 Bound

Same assay, conditions: 20 nM GST-SUFU, parent: 67, read off a plot

Row | Variant | response
2 | chain 1 S130E | 52 % GLI1 Bound

Same assay, conditions: 40 nM GST-SUFU, parent: 80, read off a plot

Row | Variant | response
3 | chain 1 S130E | 61 % GLI1 Bound

Same assay, conditions: 80 nM GST-SUFU, parent: 95, read off a plot

Row | Variant | response
4 | chain 1 S130E | 72 % GLI1 Bound
